Entries after “also recorded” stand apart in the source; their conditions may differ. One block for each molecule: values may come before it.
Tests used:
[1] = test system: WT brown preadipocytes; assay: Brown adipocyte differentiation, Oil Red O staining; format: cell-based, mouse; conditions: for differentiation of brown preadipocytes, agent alone: brown preadipocyte cell line, single agent; for lipid accumulation as monitored by Oil Red O staining (brown adipocyte differentiation): 33 nM BMP, 10 days, absence of induction cocktail; for differentiation of brown preadipocytes, BMP plus insulin and T3: combination of BMP-6 or -7 plus insulin and T3
Experimental: (§1) Preadipocytes were grown to confluence (day 0) in differentiation medium (Dulbecco's modified […] medium containing 10% Fetal Bovine Serum supplemented with 20 nM insulin and 1 nM T3). Adipocyte differentiation was induced by treating confluent cells for 48 hours in differentiation medium further supplemented with 0.5 mM isobutylmethylxanthine (IBMX), 0.5 mM dexamethazone, and 0.125 mM indomethacin. After this induction period (day 2), cells were placed back to differentiation medium, which was then changed every second day.
(§2) Dishes were washed twice with phosphate-buffered saline and fixed with 10% buffered formalin for at least 1 hour at room temperature. Cells were then stained for 2 hours at room temperature with a filtered oil red 0 solution (0.5% oil red 0 in isopropyl alcohol), washed twice with distilled water, and visualized.
Brown fat precursor cells were isolated from intrascapular brown fat of newborn mice and immortalized by SV40 T antigen.
To begin to explore the role of BMPs on brown adipogenesis, the effect of six different BMPs on differentiation of WT brown preadipocytes was examined. In the absence of induction cocktail, 33 nM of BMPs were added to the normal culture medium and fresh medium was changed every 2 days.

[2] = test system: BMP-6 gene expression; assay: BMP-6 gene expression in wildtype brown adipocytes; format: cell-based, mouse; conditions: acute treatment
[3] = test system: IRS-1 KO brown preadipocytes; assay: Differentiation of IRS-1 knockout brown preadipocytes; format: cell-based, mouse
Experimental: as §1, §2
These factors utilize a complex signaling pathway to exert their pleiotropic biological effects involving activation of their respective cell surface receptors and phosphorylation of several intracellular insulin/IGF-1 receptor substrates (IRS). To determine the role of this signaling pathway in the regulation of brown adipogenesis and metabolism, brown preadipocyte cell lines were generated from wild-type (WT) and different IRS knockout (KO) mice (Fasshauer et al., Mol Cell Biol 21:319-329 (2001); Tseng et al., J Biol. Chem. 277:31601-31611 (2002); Tseng et al., Mol Cell Biol 24:1918-1929 (2004)). These cells were studied in both their fibroblastic and differentiated states. […] This occurred not only at the levels of lipid accumulation, but also involved blockade of the normal pattern of progression in the transcriptional regulators of adipogenesis, such as C/EBPα and PPARγ, as well as thermogenic marker UCP-1.
The differentiation inductive effect of BMP-6 is more easily seen in brown adipocytes from IRS-1 knockout animals, which are known to have a defect in adipocyte differentiation. […]

[4] = test system: PGC-1a; assay: PGC-1a mRNA expression by quantitative RT-PCR in brown preadipocytes; format: cell-based, mouse
Description: (§3) PGC-1∀ and UCP-1 are two decisive cellular markers of brown adipocytes.

[5] = test system: Pref-1 (preadipocyte factor-1); assay: Pref-1 expression by quantitative RT-PCR in IRS-1 KO cells; format: cell-based, mouse; conditions: 30 nM over six days
Description: IRS-1 signalling plays an important role in insulin resistance, which is a hallmark of Type II diabetes.

[6] = test system: PPARγ; assay: PPARγ mRNA and protein expression in brown preadipocytes; format: cell-based, mouse
Description: as §3

[7] = test system: white preadipocytes (3T3-L1 cells); assay: White preadipocyte differentiation, Oil Red O staining; format: cell-based; conditions: for insulin- and insulin/T3-induced differentiation of 3T3-L1 cells: BMP alone or combined with insulin
Experimental: as §1, §2

[8] = test system: mouse embryonic fibroblasts (MEFs); assay: Adipogenesis in mouse embryonic fibroblasts, Oil Red O staining; format: cell-based; conditions: MEF cells, 1 μM rosiglitazone plus BMP, 10 days
Experimental: To examine whether BMPs play a role in determining the fate of pluripotent stem cells toward brown adipocyte lineage, murine pluripotent cells, the effect of BMPs on adipogenesis was evaluated in mouse embryonic fibroblasts (MEFs), which were generated lab using the 3T3 protocol of Todaro and Green (J. Cell. Biol. 17:299-313 (1963)). The MEF cells were maintained in Dulbecco's Modified Eagle Medium (DMEM) supplemented with 10% FBS.
(§4) MEF cells were grown in culture media containing 1 μM of rosiglitazone, BMPs, or a combination of both for 10 days. Oil Red O staining was performed at the end of differentiation to monitor the degree of adipogenesis. […] Whole cell lysates were isolated from these cells to examine the expression of the adipogenic marker FAS (fatty acid synthase).

[9] = test system: FAS (fatty acid synthase); assay: FAS protein expression in MEF whole cell lysates; format: cell-based, mouse; conditions: MEF cells, presence of induction cocktail or TZD
Experimental: as §4

[10] = test system: p38 MAPK; assay: BMP signaling in WT brown preadipocytes, phospho-specific antibody Western blot; format: cell-based, mouse; conditions: WT brown preadipocytes treated with recombinant BMP-6, phospho-specific antibodies (Thr180/Tyr182)
Experimental: (§5) Brown fat precursor cells were isolated from intrascapular brown fat of newborn mice and immortalized by SV40 T antigen. […] Following differentiation with an induction cocktail of 20 nM insulin, 1 nM thyroid hormone [3,5,3′-triiodothyronine (T3)], 0.5 μM dexamethazone, 0.125 mM indomethacin, and 0.5 mM isobutylmethylxanthine, pre-adipocytes became smaller, rounded up, accumulated fat, and the cytoplasm/nuclear-ratio increased dramatically. Once fully differentiated, multi-locular fat droplets could be detected both microscopically and by Oil Red-O staining. Expression of UCP-1 was detected at basal state and upon β-adrenergic stimulation, confirming the features of brown adipocytes (methods described in Klein et al., J. Biol. Chem. 274:34795-34802 (1999)).
(§6) To see if BMPs were able to transmit signals into these cells, the WT brown preadipocytes were treated with recombinant BMP-6 (R&D Systems).

[11] = test system: Smad 1/5/8; assay: as above; format: cell-based, mouse
Experimental: as §5, §6

[12] = test system: UCP-1 promoter; assay: UCP-1 expression reporter gene (UCP-1 promoter linked to firefly luciferase); format: cell-based; conditions: 10 uM TZD and retinoic acid, presence of PPARγ and RxRa
Description: Adaptive thermogenesis is an important component of energy homeostasis and a metabolic defense against obesity.

[13] = test system: UCP-1; assay: UCP-1 protein expression by Western blot in brown preadipocytes; format: cell-based, mouse; conditions: combination of 20 nM insulin, 1 nM T3 and 8.3 nM BMP-7
Description: as §3

[14] = standard induction conditions (W induction)

Molecule: N[C@@H](Cc1cc(I)c(Oc2ccc(O)c(I)c2)c(I)c1)C(=O)O [T3, 3,5,3′-triiodothyronine, reference compound]
differentiation of brown preadipocytes, agent alone [1]: pro-differentiative effects

Molecule: IGF-1: known inducer of adipocyte differentiation
BMP-6 gene expression [2]: acutely induce

Molecule: insulin: known inducer of adipocyte differentiation
differentiation of brown preadipocytes, agent alone [1]: pro-differentiative effects
BMP-6 gene expression [2]: acutely induce

B1: BMP-6: Recombinant human BMP-6 (R & D Systems, MN) (protein, listed as Homo sapiens)
chain: RSASSRRRQQSRNRSTQSQDVARVSSASDYNSSELKTACRKHELYVSFQDLGWQDWIIAPKGYAANYCDGECSFPLNAHMNATNHAIVQTLVHLMNPEYVPKPCCAPTKLNAISVLYFDDNSNVILKKYRNMVVRACGCH
differentiation of IRS-1 KO brown preadipocytes ([3]; 30 nM over six days): restores the defects in differentiation
BAT differentiation of IRS-1 knockout preadipocytes, without induction ([3]; W/O induction): no change
differentiation of IRS-1 knockout brown preadipocytes, with induction [3, 14]: rescue, at least partially; also recorded: enhanced the level of differentiation
PGC-1a mRNA expression at day 3 ([4]; Q-RT-PCR, day 3): quickly induced
PGC-1a mRNA expression as differentiation progressed to day 9 ([4]; Q-RT-PCR, to day 9): further increased
expression of PGC-1 during spontaneous differentiation ([4]; addition of recombinant BMP-6): induced expression
PGC-1a mRNA expression at 0, 3, and 6 days after treatment ([4]; quantitative RT-PCR, FIG. 3): increase
morphology of wild-type brown pre-adipocytes [1]: cause changes in the morphology
lipid accumulation as monitored by Oil Red O staining (brown adipocyte differentiation) [1]: substantial increase in lipid accumulation
differentiation of wildtype brown preadipocytes, without induction ([1]; absence of standard induction conditions (W/O induction)): increased the level of brown adipocyte differentiation
differentiation of brown preadipocytes, agent alone [1]: pro-differentiative effects
differentiation of brown preadipocytes, BMP plus insulin and T3 [1]: strongly enhanced
differentiation of wildtype brown preadipocytes, with induction [1, 14]: enhance differentiation; also recorded: enhanced the level of differentiation
acceleration of differentiation (Oil Red O staining) ([1]; wild-type brown adipocytes, presence of induction cocktail): 1 to 2 days
Pref-1 expression [5]: down-regulation
PPARγ protein expression ([6]; BMP-6 treatment, course of differentiation (0, 3, 6 days), Western blot): markedly induced; also recorded: approximately maximal by day 3; also recorded: increase
PPARγ mRNA expression ([6]; BMP-6 treatment, course of differentiation (0, 3, 6 days), quantitative RT-PCR): markedly induced; also recorded: approximately maximal by day 3; also recorded: increase
expression of PPARγ during spontaneous differentiation ([6]; addition of recombinant BMP-6): induced expression
differentiation of white preadipocytes ([7]; 33 nM, 8 days): did not induce differentiation
insulin- and insulin/T3-induced differentiation of 3T3-L1 cells [7]: Little to no effect
WAT differentiation (3T3-L1), without induction ([7]; W/O induction): no change
differentiation of 3T3-L1 cells, with induction [7, 14]: inhibited the level of differentiation
TZD effects on adipocyte differentiation (Oil Red O) [8]: potentiated the TZD effects
FAS protein expression [9]: induced FAS protein expression
activation of p38 MAPK [10]: quickly activated
activation of p38 MAPK ([10]; listed as BMP6): activation
activation of Smad 1/5/8 ([11]; WT brown preadipocytes treated with recombinant BMP-6): quickly activated
activation of Smad 1/5/8 ([11]; WT brown preadipocytes treated with recombinant BMP-6, listed as BMP6): activation

B2: BMP-4: bone morphogenetic protein 4, added at 33 nM to culture medium (protein, listed as Homo sapiens)
chain: SPKHHSQRARKKNKNCRRHSLYVDFSDVGWNDWIVAPPGYQAFYCHGDCPFPLADHLNSTNHAIVQTLVNSVNSSIPKACCVPTELSAISMLYLDEYDKVVLKNYQEMVVEGCGCR
lipid accumulation as monitored by Oil Red O staining (brown adipocyte differentiation) [1]: substantial increase in lipid accumulation

B3: BMP-3: bone morphogenetic protein 3, added at 33 nM to culture medium (protein, UniProt P12645 363-472, looked up)
Bone morphogenetic protein 3: QWIEPRNCARRYLKVDFADIGWSEWIISPKSFDAYYCSGACQFPMPKSLKPSNHATIQSIVRAVGVVPGIPEPCCVPEKMSSLSILFFDENKNVVLKVYPNMTVESCACR
lipid accumulation as monitored by Oil Red O staining (brown adipocyte differentiation) [1]: no effect

TZD/RA-induced stimulation of UCP-1 promoter activity [12]: enhanced
B4: BMP-7: bone morphogenetic protein 7 (protein, listed as Homo sapiens)
chain: STGSKQRSQNRSKTPKNQEALRMANVAENSSSDQRQACKKHELYVSFRDLGWQDWIIAPEGYAAYYCEGECAFPLNSYMNATNHAIVQTLVHFINPETVPKPCCAPTQLNAISVLYFDDSSNVILKKYRNMVVRACGCH
lipid accumulation as monitored by Oil Red O staining (brown adipocyte differentiation) [1]: substantial increase in lipid accumulation
differentiation of brown preadipocytes, agent alone [1]: pro-differentiative effects
differentiation of brown preadipocytes, BMP plus insulin and T3 [1]: strongly enhanced
differentiation of brown preadipocytes, insulin plus B7 ([1]; combination with insulin): strong combination effects
PPARγ expression, combination treatments ([6]; combination of 20 nM insulin, 1 nM T3 and 8.3 nM BMP-7, Western blot): strongest induction
insulin- and insulin/T3-induced differentiation of 3T3-L1 cells [7]: Little to no effect
UCP-1 expression, combination treatments [13]: strongest induction
TZD effects on adipocyte differentiation (Oil Red O) [8]: potentiated the TZD effects
FAS protein expression [9]: induced FAS protein expression

B5: BMP-5: bone morphogenetic protein 5, added at 33 nM to culture medium (protein, listed as Homo sapiens)
chain: NQNRNKSSSHQDSSRMSSVGDYNTSEQKQACKKHELYVSFRDLGWQDWIIAPEGYAAFYCDGECSFPLNAHMNATNHAIVQTLVHLMFPDHVPKPCCAPTKLNAISVLYFDDSSNVILKKYRNMVVRSCGCH
lipid accumulation as monitored by Oil Red O staining (brown adipocyte differentiation) [1]: weaker effect
